Four molecules from paper PMC12258035, “AcABI5a integrates abscisic acid signaling to developmentally modulate fruit ascorbic acid biosynthesis in kiwifruit” can be followed below.

The target of data set [1] is T1, AcABI5a-His (Actinidia chinensis? (cv. 'Donghong'), UniProt A0A2R6QW13 1-413).
T1 sequence: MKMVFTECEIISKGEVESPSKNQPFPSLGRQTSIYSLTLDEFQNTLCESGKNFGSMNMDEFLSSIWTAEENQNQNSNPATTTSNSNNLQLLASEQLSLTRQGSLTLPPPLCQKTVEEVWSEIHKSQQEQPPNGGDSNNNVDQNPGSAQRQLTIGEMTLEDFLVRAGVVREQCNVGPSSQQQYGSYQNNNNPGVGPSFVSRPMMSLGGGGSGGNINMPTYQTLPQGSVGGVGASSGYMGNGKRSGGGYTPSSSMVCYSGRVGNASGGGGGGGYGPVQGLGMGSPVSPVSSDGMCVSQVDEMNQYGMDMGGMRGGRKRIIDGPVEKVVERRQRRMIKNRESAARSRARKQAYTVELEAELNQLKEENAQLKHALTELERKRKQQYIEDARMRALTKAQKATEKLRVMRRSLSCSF
Put plainly: EMSA; unlabeled competitor weakens the band; EMSA in polyacrylamide gels with FAM probes; buffer, salt, pH and temperature not stated (refers to Hou et al. [71]). The following applies: protein: recombinant; tags: 6xHis at N- and C-terminus (pET-32a); fusion 65 kDa; chain copies: 2; label: FAM (on F strand); blunt. Background: In EMSA bound probe runs differently from free probe, usually more slowly.

Data set [2] concerns the target T1, AcABI5a-His. Put plainly: EMSA; EMSA in polyacrylamide gels with FAM probes; buffer, salt, pH and temperature not stated (refers to Hou et al. [71]). The following applies: protein: recombinant; tags: 6xHis at N- and C-terminus (pET-32a); fusion 65 kDa; chain copies: 2; label: FAM (on F strand); blunt.

B1: AcABI5a promoter G-box probe (dsDNA)
DNA 1: GCACCCTTGTAGACGTGAAATTGTAAGA
DNA 2: TCTTACAATTTCACGTCTACAAGGGTGC
Turning to B1, the binding result in data set [1] was “binds”.

B2: AcABI5a promoter mutant probe (dsDNA)
DNA 1: GCACCCTTGTAAAAAAAAAATTGTAAGA
DNA 2: TCTTACAATTTTTTTTTTACAAGGGTGC
Regarding B2, the binding result in data set [2] is listed as “no binding”.

B3: AcMYBS1 promoter G-box probe (dsDNA)
DNA 1: ATATTTTGTTATACGTGTTAGAAGTTCA
DNA 2: TGAACTTCTAACACGTATAACAAAATAT
Turning to B3, the binding result in data set [1] is “binds”.

B4: AcMYBS1 mutant probe (dsDNA)
DNA 1: ATATTTTGTTAAAAAAATTAGAAGTTCA
DNA 2: TGAACTTCTAATTTTTTTAACAAAATAT
In the case of B4, in data set [2], the binding result is on record as “no binding”.
